A short description of data set [1]: Isoelectric point (PI) measurement. The format is physicochemical. As to conditions: unlabeled compound.
For data set [2], the system named is SUM149PT human breast cancer cell line. Description: Cell saturation binding assay, SUM149PT. Conditions: 68Ga-labeled compound. The procedure:
(1) For the cell saturation binding assay, a total of 8 radiolabeled ligand concentrations were set at intervals within the anticipated range. For each concentration, there were 3 groups: the non-inhibition group, the first single inhibition group (FAP single inhibition group), and the second single inhibition group (CXCR4/GRPR/αvβ3 single inhibition group). For each concentration and each group, 3 replicate wells were established.
(2) Cells were plated into a 24-well plate according to the cell plating procedure described above.
(3) The original culture medium was removed from the 24-well plate. Then, 400 μL of 100 mg/mL skimmed milk solution was added to each well for blocking for one hour. After removing the skimmed milk solution, each of wells was washed three times by adding 400 μL of PBS solution. Subsequently, 146 μL of FBS-free medium was added to each well. Next, the non-inhibition group received 4 μL of cold PBS per well, while the first single inhibition group and the second single inhibition group received the following additions per well according to Table 4: 2 μL of non-radiolabeled first single inhibitor solution and 2 μL of cold PBS; 2 μL of non-radiolabeled second single inhibitor solution and 2 μL of cold PBS. The plate was then incubated at room temperature for one hour.
(4) The ligands were radiolabeled with 68Ga using the labeling method described previously. Different volumes of FBS-free medium were added to formulate the radioligand systems at corresponding concentrations. Then, 50 μL of the corresponding concentration of the radioligand system was added to each well.
(5) The supernatant was removed, and the wells were washed three times with 400 μL of PBS. 200 μL of IM NaOH solution was added to each well for cell lysis. […] Each well was washed once with 400 μL of PBS solution, and the washings were sequentially added to the corresponding radioimmunoassay tubes.
(6) Radioactivity in the cells was measured using a γ counter. The equilibrium dissociation constant (KD) was obtained by fitting the curve using nonlinear regression analysis in GraphPad Prism software. KD is the drug concentration that causes half of the maximum effect (50% receptor occupancy).

Data set [3] in a line: Stability of radioligands in PBS buffer (radio-HPLC). The format is physicochemical. Here is the method: The purpose of this experiment was to test the stability of the radioligands under buffer conditions simulating the physiological environment. This stability is a prerequisite for further animal experiments.
1. ^68Ga-SDYD01: ^68Ga-SDYD01 was added to PBS buffer (pH=7.4) and incubated at 37° C. The mixture samples were taken for radio-HPLC analysis after 0.5 hours, 1 hour, and 2 hours of incubation. The stability of ^68Ga-SDYD01 in PBS buffer: the radiochemical purities of ^68Ga-SDYD01 after incubation in PBS for 0.5 hours, 1 hour, and 2 hours were 98%, 97%, and 97%, respectively (FIG. 4).
2. ^177Lu-SDYD01: ^177Lu-SDYD01 was added to PBS buffer (pH=7.4) and incubated at 37° C. The mixture samples were taken for radio-HPLC analysis after 24 hours, 48 hours, and 120 hours of incubation. The stability of ^177Lu-SDYD01 in PBS buffer: the radiochemical purities of ^177Lu-SDYD01 after incubation in PBS for 24 hours, 48 hours, and 120 hours were 97%, 96%, and 94%, respectively (FIG. 5).
1. ^68Ga-SDYD02: ^68Ga-SDYD02 was added to PBS buffer (pH=7.4) and incubated at 37° C. The mixture samples were taken for radio-HPLC analysis after 0.5 hours, 1 hour, and 2 hours of incubation. The stability of ^68Ga-SDYD02 in PBS buffer: the radiochemical purities of ^68Ga-SDYD02 after incubation in PBS for 0.5 hours, 1 hour, and 2 hours were 96%, 95% and 93%, respectively (FIG. 10).
2. ^177Lu-SDYD02: ^177Lu-SDYD02 was added to PBS buffer (pH=7.4) and incubated at 37° C. The mixture samples were taken for radio-HPLC analysis after 24 hours, 48 hours, and 120 hours of incubation. The stability of ^177Lu-SDYD02 in PBS buffer: the radiochemical purities of ^177Lu-SDYD02 after incubation in PBS for 24 hours, 48 hours, and 120 hours were 95%, 91% and 87%, respectively (FIG. 11).
1. ^68Ga-SDYD05: ^68Ga-SDYD05 was added to PBS buffer (pH=7.4) and incubated at 37° C. The mixture samples were taken for radio-HPLC analysis after 0.5 hours, 1 hour, and 2 hours of incubation. The stability of ^68Ga-SDYD05 in PBS buffer: the radiochemical purities of ^68Ga-SDYD05 after incubation in PBS for 0.5 hours, 1 hour, and 2 hours were 98%, 96% and 95%, respectively (FIG. 16).
2. ^177Lu-SDYD05: ^177Lu-SDYD05 was added to PBS buffer (pH=7.4) and incubated at 37° C. The mixture samples were taken for radio-HPLC analysis after 24 hours, 48 hours, and 120 hours of incubation. The stability of ^177Lu-SDYD05 in PBS buffer: the radiochemical purities of ^177Lu-SDYD05 after incubation in PBS for 24 hours, 48 hours, and 120 hours were 97%, 96% and 96%, respectively (FIG. 17).
1. ^68Ga-SDYD06: ^68Ga-SDYD06 was added to PBS buffer (pH=7.4) and incubated at 37° C. The mixture samples were taken for radio-HPLC analysis after 0.5, 1, and 2 hours of incubation. The stability of ^68Ga-SDYD06 in PBS buffer: the radiochemical purities of ^68Ga-SDYD06 after incubation in PBS for 0.5 hours, 1 hour, and 2 hours were 96%, 94% and 93%, respectively (FIG. 22).
2. ^177Lu-SDYD06: ^177Lu-SDYD06 was added to PBS buffer (pH=7.4) and incubated at 37° C. The mixture samples were taken for radio-HPLC analysis after 24 hours, 48 hours, and 120 hours of incubation.
1. ^68Ga-SDYD03: ^68Ga-SDYD03 was added to PBS buffer (pH=7.4) and incubated at 37° C. The mixture samples were taken for radio-HPLC analysis after 0.5 hours, 1 hour, and 2 hours of incubation. The stability of ^68Ga-SDYD03 PBS in PBS buffer: the radiochemical purities of ^68Ga-SDYD03 after incubation in PBS for 0.5 hours, 1 hour, and 2 hours were 96%, 96% and 95%, respectively (FIG. 27).
2. ^177Lu-SDYD03: ^177Lu-SDYD03 was added to PBS buffer (pH=7.4) and incubated at 37° C. The mixture samples were taken for radio-HPLC analysis after 24 hours, 48 hours, and 120 hours of incubation. The stability of ^177Lu-SDYD03 in PBS buffer: the radiochemical purities of ^177Lu-SDYD03 after incubation in PBS for 24 hours, 48 hours, and 120 hours are 99%, 96% and 94%, respectively (FIG. 28). […]

Data set [4] can be described thus: Small animal PET imaging and biodistribution study. Conditions: NSG, mouse, in vivo, iv, 7.4 MBq, total radioactivity, absolute uptake value in the tumor. The format is in vivo, NSG mice. The procedure: (§1) Eleven NSG mice bearing subcutaneous xenograft tumors (U87 MG cells), with tumor sizes approximately 150 mm^3, were used. The mice were intravenously injected via the tail vein with approximately 7.4 MBq of ^68Ga-labeled SDYD01, SDYD02, SDYD03. SDYD04, SDYD05, SDYD06, SDYD07, SDYD08 or SDYD07-1 compounds, or with ^[…]-labeled FAPI-04 or FAP2286 compounds as tracers. Micro PET/CT imaging was performed at 30 min, 60 min, and 120 min post-injection. Static images were acquired in 3D mode for 20 minutes. Reconstruction was performed using the OSEM3D/MAP method to obtain attenuation-corrected PET/CT fusion images.
(§2) NSG mice bearing subcutaneous xenograft tumors (U87 MG cells) were divided into 3 groups, with 11 mice in each group. They were intravenously injected via the tail vein with ^68Ga-labeled SDYD01, SDYD02, SDYD03. SDYD04, SDYD05, SDYD06. SDYD07, SDYD08, or SDYD07-1 compounds, or with ^68Ga-labeled FAPI-04 or FAP2286 compounds as tracers. Tumor-bearing mice injected with ^68Ga-labeled compounds SDYD01, SDYD02, SDYD03, SDYD04, SDYD05, SDYD06, FAPI-04, as well as 68Ga-labeled compounds FAPI-04 and FAP2286, were euthanized at 30 min. 60 min, and 120 min, respectively, for each group. Tumor-bearing mice injected with ^68Ga-labeled compounds SDYD07, SDYD08, and SDYD07-1 were euthanized at 30 min, 60 min, and 90 min, respectively, for each group. Blood, tumors, and other major organs and tissues were collected, weighed, and measured for radioactivity. After radioactive decay correction, the standardized uptake value (SUV) and percentage injected dose per gram of tissue (% ID/g) were calculated. In these figures, (a) represents the PET/CT imaging results, (b) represents the biodistribution results, and (c) represents the relative ratios of radioactive uptake in tumor versus normal tissues.

The subject of data set [5] is subcutaneous xenograft tumors (U87 MG cells). The data set can be described thus: Small animal PET imaging and biodistribution study. As to conditions: mouse, in vivo. The format is in vivo, NSG mice. Here is the method: as §1, §2

Where two headings read alike, the source gives them in different places.

`CCCCCC(=O)N[C@@H]1CSCc2cc(CSCCNC(=O)[C@@H](CCCCNC(=O)CN3CCN(CC(=O)O)CCN(CC(=O)O)CCN(CC(=O)O)CC3)NC(=O)COCCOCCNC(=O)COCCOCCNC(=O)CCN3C(=O)CC(SCCNC(=O)CCC(=O)N[C@@H](CCCNC(=N)N)C(=O)N[C@@H](CCCNC(=N)N)C(=O)N[C@@H](Cc4ccc5ccccc5c4)C(=O)N[C@@H]4CSSC[C@@H](C(=O)N[C@@H](CCCNC(=N)N)C(N)=O)NC(=O)[C@H](CCCNC(N)=O)NC(=O)[C@H](CCCNC(=N)N)NC(=O)[C@H](Cc5ccc(O)cc5)NC(=O)[C@@H]5CCCN5C(=O)[C@H](CCCCN)NC(=O)[C@H](CCCCN)NC(=O)[C@H](CCCNC(N)=O)NC(=O)[C@H](Cc5ccc(O)cc5)NC4=O)C3=O)cc(c2)CSC[C@@H](C(=O)O)NC(=O)[C@H](Cc2ccccc2)NC(=O)[C@H](CCC(N)=O)NC(=O)C([C@@H](C)O)NC(=O)[C@@H]2CCCN2C(=O)[C@@H]2CCCN2C1=O` (stereo partly drawn) [SDYD02]: in data set [1], the “Main peak's PI” value is on record as 11.183. Further, in data set [2], the “KD values / binding affinity to the receptors (in words)” value is recorded as “relatively low KD values”. Further, the Kd in data set [2] (FAPI-04 solution, read-out: KD value, First single inhibition group (FAP single inhibition)) stood at 3.35 ± 0.92 nM; in data set [2] (T140 solution (CXCR4 inhibitor), read-out: KD value, Second single inhibition group (CXCR4/GRPR/αvβ3 single inhibition)) it was 6.3 ± 0.78 nM; in data set [2] (read-out: KD value, Non-inhibition group), 7.11 ± 1.17 nM.

With `CN1C(=O)[C@@H](Cc2ccc(O)cc2)NC(=O)CNC(=O)[C@H](Cc2ccc3ccccc3c2)NC(=O)[C@H](CCCNC(=N)N)NC(=O)[C@H]1CCCNC(=O)c1ccc(CNC(=O)[C@H](CCCCNC(=O)CN2CCN(CC(=O)O)CCN(CC(=O)O)CCN(CC(=O)O)CC2)NC(=O)CCC(=O)NCCOCCOCC(=O)NCCOCCOCC(=O)N2CCN(CCCOc3ccc4nccc(C(=O)NCC(=O)N5CC(F)(F)C[C@H]5C#N)c4c3)CC2)cc1` [^68Ga-SDYD05, metal not drawn], the “stability in PBS buffer (in words)” value in data set [3] is on record as “quite stable in PBS buffer”. Besides, in data set [4], the tissue uptake at 0.5 h was not below 10 %ID/g and the tissue uptake at 1 h is not below 10 %ID/g. The “radioactive uptake in the tumor sites (in words)” value in data set [5] is on record as “significant radioactive uptake in the tumor sites”.
